# According to patent publication US20250144178A1, “PHARMACEUTICAL COMPOSITION FOR CANCER TREATMENT COMPRISING FUSION PROTEIN INCLUDING IL-12 AND ANTI-FAP ANTIBODY AND ANTICANCER AGENT” (KANAPH THERAPEUTICS INC., priority 2022, published 2025):
# Where two headings read alike, the source gives them in different places.
# T1: recombinant mouse FAP (Mus musculus, UniProt P97321)
# T1 sequence (P97321 1-761): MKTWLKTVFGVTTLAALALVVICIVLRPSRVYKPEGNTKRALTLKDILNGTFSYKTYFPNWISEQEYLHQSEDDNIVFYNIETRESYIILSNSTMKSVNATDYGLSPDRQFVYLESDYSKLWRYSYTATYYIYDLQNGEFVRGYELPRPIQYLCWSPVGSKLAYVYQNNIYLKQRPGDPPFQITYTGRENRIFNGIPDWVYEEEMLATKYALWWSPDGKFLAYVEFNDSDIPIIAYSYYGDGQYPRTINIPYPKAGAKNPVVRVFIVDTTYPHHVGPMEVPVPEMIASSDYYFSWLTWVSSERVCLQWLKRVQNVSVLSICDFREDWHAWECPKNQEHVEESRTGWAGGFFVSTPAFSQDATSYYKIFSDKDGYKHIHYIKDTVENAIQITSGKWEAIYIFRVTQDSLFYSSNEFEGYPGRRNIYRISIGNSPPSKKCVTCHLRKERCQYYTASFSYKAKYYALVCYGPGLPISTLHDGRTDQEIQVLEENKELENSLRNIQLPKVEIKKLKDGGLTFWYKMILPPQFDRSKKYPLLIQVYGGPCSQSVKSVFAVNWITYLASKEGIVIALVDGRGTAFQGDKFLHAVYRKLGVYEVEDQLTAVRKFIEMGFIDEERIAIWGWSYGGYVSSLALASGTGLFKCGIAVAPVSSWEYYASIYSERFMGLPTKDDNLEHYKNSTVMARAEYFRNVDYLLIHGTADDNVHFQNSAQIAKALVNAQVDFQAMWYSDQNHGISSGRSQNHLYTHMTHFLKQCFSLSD
# B1: T1.03m: K&H bispecific: anti-mu FAP/mu IL-12 mut2, mu IgG2a DANG (seq18, seq19, seq22) (antibody)
# heavy: QVQLQQSGAELARPGASVNLSCKASGYTFTNNGINWLKQRTGQGLEWIGEIYPRSTNTLYNEKFKGKATLTADRSSNTAYMELRSLTSEDSAVYFCARTLTAPFAFWGQGTLVTVSAAKTTAPSVYPLAPVCGDTTGSSVTLGCLVKGYFPEPVTLTWNSGSLSSGVHTFPAVLQSDLYTLSSSVTVTSSTWPSQSITCNVAHPASSTKVDKKIEPRGPTIKPCPPCKCPAPNLLGGPSVFIFPPKIKDVLMISLSPIVTCVVVAVSEDDPDVQISWFVNNVEVHTAQTQTHREDYGSTLRVVSALPIQHQDWMSGKEFKCKVNNKDLPAPIERTISKPKGSVRAPQVYVLPPPEEEMTKKQVTLWCMVTDFMPEDIYVEWTNNGKTELNYKNTEPVLDSDGSYFMYSKLRVEKKNWVERNSYSCSVVHEGLHNHHTTKSFSRTPGK
# light: QIVLTQSPAIMSASPGEKVTMTCSASSGVNFMHWYQQKSGTSPKRWIFDTSKLASGVPARFSGSGSGTSYSLTISSMEAEDAATYYCQQWSFNPPTFGGGTKLEIKRADAAPTVSIFPPSSEQLTSGGASVVCFLNNFYPKDINVKWKIDGSERQNGVLNSWTDQDSKDSTYSMSSTLTLTKDEYERHNSYTCEATHKTSTSPIVKSFNRNEC
# chain: MWELEKDVYVVEVDWTPDAPGETVNLTCDTPEEDDITWTSDQRHGVIGSGKTLTITVKEFLDAGQYTCHKGGETLSHSHLLLHKKENGIWSTEILKNFKNKTFLKCEAPNYSGRFTCSWLVQRNMDLKFNIKSSSSSPDSRAVTCGMASLSAEKVTLDQRDYEKYSVSCQEDVTCPTAEETLPIELALEARQQNKYENYSTSFFIRDIIKPDPPKNLQMKPLKNSQVEVSWEYPDSWSTPHSYFSLKFFVRIQAAAEKMAETEEGCNQKGAFLVEKTSTEVQCKGGNVCVQAQDRYYNSSCSKWACVPCRVRSGGGGSGGGGSGGGGSRVIPVSGPARCLSQSRNLLKTTDDMVKTAREKLKHYSCTAEDIDHEDITRDQTSTLKTCLPLELHKNESCLATRETSSTTRGSCLPPQKTSLMMTLCLGSIYEDLKMYQTEFQAINAALQNHNHQQIILDKGMLVAIDELMQSLNHNGETLRQKPPVGEADPYRVKMKLCILLHAFSTRVVTINRVMGYLSSAGGGGSGGGGSEPRGPTIKPCPPCKCPAPNLLGGPSVFIFPPKIKDVLMISLSPIVTCVVVAVSEDDPDVQISWFVNNVEVHTAQTQTHREDYGSTLRVVSALPIQHQDWMSGKEFKCKVNNKDLPAPIERTISKPKGSVRAPQVYVLPPPEEEMTKKQVTLSCAVTDFMPEDIYVEWTNNGKTELNYKNTEPVLDSDGSYFMVSKLRVEKKNWVERNSYSCSVVHEGLHNHHTTKSFSRTPGK
# Key:
# [1] = test system: LLC1 lung cancer with NIH-3T3 overexpressing FAP; type: in vivo, C57BL/6J mice
# Description: Specifically, the NIH-3T3 cell line overexpressing FAP and the LLC1 cells were resuspended in Hanks' Balanced salt solution (HBSS, Gibco) at a concentration of 1×10^6 cells/50 μl, respectively, and the cells were mixed in a 1:1 ratio, and then 100 μl per each mouse was transplanted into the subcutaneous region of the right flank of 6-week-old C57BL/6J mice using a 1 cc syringe (25G).
# (§1) Next, for drug efficacy evaluation, when the size of the tumor reached 70 to 100 mm^3, the mice were randomly divided into groups. As the control, PBS was administered, and as the test group, T1.03m was intravenously administered once at a dose of 10 μg and 100 μg.
# [2] = test system: FAP-overexpressing mouse colorectal cancer cell line CT26 cells; test: Single administration of T1.03m in FAP-overexpressing CT26 model; type: in vivo, BALB/c mice
# Description: Specifically, the tumor cells were transplanted into the right dorsal flank side of 6-week-old BALB/c mice, and when the size of the tumor of the animal model reached 70 to 100 mm^3, the mice were randomly divided into groups and the administration was performed. As the control, PBS was administered, and as the test group, 100 μl of T1.03m was intravenously administered once at a dose of 2 μg, 10 μg and 100 μg. The size of the tumor was measured in the same manner as in Example 4.1.
# [3] = test system: mouse FAP overexpressing B16F10 melanoma; test: Melanoma model, mouse FAP overexpressing B16F10; type: in vivo, C57BL/6J mice; conditions: during the test period
# Description: In order to identify the anticancer effect through immune activation of the fusion protein, mouse FAP was overexpressed in the mouse melanoma cell line B16F10, which is known to have little immune cell infiltration, and then transplanted into C57BL/6J mice, and the tumor growth inhibitory ability was evaluated.
# Specifically, the cells in culture were resuspended in Hanks' Balanced salt solution (HBSS, Gibco), and then 100 μl of 1×10^6 tumor cells per each mouse were transplanted into the subcutaneous region of the left the dorsal flank side of 6-week-old C57BL/6J mice.
# as §1
# recombinant mouse FAP = target: T1, recombinant mouse FAP; test: Surface plasmon resonance binding to recombinant mouse FAP; conditions: SPR, 2 μg/ml protein, FIGS. 13 and 14
# Description: The surface of the CM5 chip was activated with a 1:1 mixture of […] (N-hydroxysuccinimide) and […] (1-Ethyl-3-(3-dimethylaminopropyl) carbodiimide), and 25 μg/ml of anti-mouse IgG (Fc) antibody was immobilized for 400 seconds at a rate of 10 μl/min. The remaining active ester groups were blocked with 1 M ethanolamine. T1.01m, T1.02m and T1.03m were diluted to 2 μg/ml and reacted on the CM5 chip immobilized with the anti-mouse IgG (Fc) antibody. The recombinant mouse FAP was diluted to 200 nM in 1×HBS-EP+buffer solution and diluted by serial dilution. The diluted recombinant mouse FAP was reacted at a rate of 30 μl/min. The association and dissociation times were 180 seconds and 400 seconds, respectively. After the dissociation, stabilization was performed for 60 seconds, and then a regeneration was performed for 30 seconds with a 10 mM glycine pH 1.5 solution at a rate of 30 μl/min.
# [4] = test system: LLC1 lung cancer with NIH-3T3 overexpressing FAP; test: Cancer targeting efficacy, LLC1 co-injected with FAP overexpressing NIH-3T3; type: in vivo, mouse; conditions: FIG. 32
# Excerpt: In order to compare the anticancer efficacy according to the cancer targeting of the dual antibody-type fusion protein in which the anti-FAP sequence structure and the IL-12 sequence structure form a Knob-in-Hole structure, the tumor growth inhibitory ability was identified in an animal model co-injected with NIH-3T3 cell overexpressing FAP, a mouse fibroblast cell line, and LLC1, a mouse lung cancer cell line, in a 1:1 ratio.
# Specifically, for drug efficacy evaluation, when the size of the tumor reached 70 to 100 mm^3, the mice were randomly divided into groups. As the control, PBS was intraperitoneally administered twice a week. The group administered with T1.16m or T1.17m alone, the group administered with T1.16m and T1.17m in combination (T1.16m+T1.17m), and the group administered with T1.03m were used as test groups to evaluate the tumor growth inhibitory ability. T1.16m and T1.17m, which are dimers of anti-FAP and IL-12, respectively, were intraperitoneally administered twice a week at a dose of 0.01 μg, and T1.03m, which is a monomer fusion protein, was intraperitoneally administered twice a week at a dose of 0.02 μg to observe the tumor growth inhibitory ability.
# HEK-Blue IL-12 cells = test: Signaling ability in IL-12 recognizing cells (STAT4 inducible SEAP reporter); type: cell-based, human; conditions: serial dilution from 4 nM, 24 hours, FIG. 18
# Description: The HEK-Blue IL-12 cell line transformed with the IL-12 receptor gene and the STAT4 inducible SEAP reporter gene into HEK293 cells, which are human embryonic kidney fibroblasts, was obtained from Invivogen (San Diego, USA). The HEK-Blue IL-12 cells were maintained in DMEM (GIBCO) containing 10% FBS (GIBCO), 100 μg/ml Normocin and 1×HEK-Blue selection.
# Specifically, the HEK-Blue IL-12 cell line, which is an IL-12 recognizing cell, was diluted to 2.8×10^5 cells/ml and dispensed at 180 μl/well. Recombinant human IL-12, T1.01m, T1.02m, T1.03m and T1.12m were suspended at 4 nM and diluted by serial dilution. HEK-Blue IL-12 cells were treated with the diluted recombinant human IL-12, T1.01m, T1.02m, T1.03m and T1.12m. After 24 hours of treatment, the cell supernatant was collected and mixed with QUANTI-Blue Solution (Invivogen) in a 96-well plate. The reporter expression level was measured at 620 nm using a spectrophotometer (Thermo Fisher).
# [5] = test system: FAP-overexpressing mouse colorectal cancer CT26; test: Tumor growth inhibition by IL-12 mutation, FAP-overexpressing CT26, single i.v. dose; type: in vivo, BALB/c mice; conditions: 10 μg i.v. once, FIG. 28
# Description: In order to evaluate the change in IL-12 activity according to the presence and extent of amino acid mutation, FAP-overexpressing mouse colorectal cancer CT26 was prepared by resuspending in PBS at a concentration of 5×10^5 cells/100 μl, and the tumor growth inhibitory ability was evaluated in a tumor animal model prepared by transplantation of the cells into 5-week-old female BALB/c mice.
# Specifically, when the size of the tumor in the model reached 100 mm^3, the mice were randomly divided into groups. 100 μl of phosphate buffered saline (PBS) was administered once via tail vein injection of the control, and each of T1.01m, T1.02m and T1.03m was intravenously administered once at a dose of 10 μg.
molecule,measurement,setting,value
B1,tumor growth inhibitory ability compared to the control,"[1]; 10 μg or 100 μg i.v. once, control PBS, FIG. 31",excellent tumor growth inhibitory ability
same,change in body weight,"[1]; mouse, in vivo",No change in body weight
same,tumor growth inhibitory ability compared to the control,"[2]; 2 μg, 10 μg and 100 μg i.v. once, control PBS, FIG. 29",high tumor growth inhibitory ability
same,change in body weight,[2]; during the test period,No change in body weight
same,change in body weight,[3],No change in body weight
same,Binding to recombinant mouse FAP,recombinant mouse FAP,may bind to recombinant mouse FAP to specifically target FAP
same,tumor growth inhibitory ability compared to the control,"[4]; 0.02 μg i.p. twice a week, 10 days after administration, control PBS",excellent tumor growth inhibitory ability
same,tumor growth inhibitory ability compared with T1.16m or T1.17m alone and their combination,"[4]; T1.03m 0.02 μg, T1.16m and T1.17m 0.01 μg, i.p. twice a week",excellent tumor growth inhibitory ability
same,IL-12 recognition / STAT4 reporter gene expression (620 nm absorbance),HEK-Blue IL-12 cells,"IL-12 was recognized, and STAT4 expressed a reporter gene by inducing phosphorylation"
same,tumor growth inhibitory ability compared to the control,"[5]; 15 days after administration, control PBS",excellent tumor growth inhibitory ability
same,tumor growth inhibitory ability compared to the group administered with T1.01m,[5],reduced
